The source of these data is publication PMC9891502 (PLOS Pathogens, 2023).

First the molecules themselves.
B1: I7 (antibody, V domains shown)
VH: QVQLVESGGGVVQPGRSLRLSCAASGFTFSGYNLHWVRQAPGKGLEWVAVISIDGSNKHYADSVKGRFTISRDNSKNTLYLQMNSLRAEDTAVYYCARDGRSVGGFSGILDPWGQGTLVTVSS
VL: not shown
notes: also called intermediate 7
B2: MAB319 (antibody, V domains shown)
VH: QVQLVESGGGVVQPGRSLRLSCSASGFTFSDYNLHWVRQAPGKGLEWVAVISIDGSDKHHADSVKGRFTVSRDNSKNTVSLQMDSLRPEDTAVYYCARDGRSVGGYSGILDPWGQGTLVTVSS
VL: EIVLTQSPATLSLSPGERATLSCRASQSVGSYLAWYQQKPGQAPRLLIYDASERATGIPARFSGSGSGTDFTLTISSLEPEDVAVYYCQQRNNWPPLTFGGGTKVEIK
B3: I5 (antibody, V domains shown)
VH: QVQLVESGGGVVQPGRSLRLSCSASGFTFSDYNLHWVRQAPGKGLEWVAVISIDGSNKHHADSVKGRFTISRDNSKNTVNLQMNSLRAEDTAVYYCARDGRSVGGYSGILDPWGQGTLVTVSS
VL: EIVLTQSPATLSLSPGERATLSCRASQSVGSYLAWYQQKPGQAPRLLIYDASERATGIPARFSGSGSGTDFTLTISSLEPEDVAVYYCQQRSNWPPLTFGGGTKVEIK
notes: also called intermediate 5
B4: MAB343 (antibody, V domains shown)
VH: QVQLQESGGGVVQPGRSLRLSCAASGFTFNTYNMHWVRQAPGKGLEWVAVISNDGTYKYSADSVKGRFSISRGNSKNTLYLQMNSLRPDDTAVYYCARDGRSVGGFSGILDPWGQGTLATVSS
VL: EIVMTQSPATLSLSPGDRATLSCRASQSVGSYLAWYQQKPGQAPRLLIYDASDRATGIPARFSGSGSGTDFTLTISSLEPEDFAVYYCQQRSNWPPLTFGGGTKVEIK
B5: MAB318 (antibody, V domains shown)
VH: QVQLVQSGGGVVQPGTSLRLSCAASGFMFNTYNMHWVRQAPGKGLEWVAVISNDGTYKHFADSLKGRFSISRDDSKNTLYLHMNSLRPDDTAIYYCARDGRSVGGFSGILDPWGQGTLVTVSS
VL: EVVLTQSPATLSLSPGDRATLSCRASQTVGRYLAWYQQKPGQAPRLLIYDASDRATGISARFSGSGSGTDFTLTIGSLEPEDFAVYYCQQRSSWPPLTFGGGTKVEIK
B6: MAB338 (antibody, V domains shown)
VH: QVQLVESGGGVVQPGRSLRLSCSGSGFTFSDYNLHWVRQAPGKGLEWVAVISIDGTNKHHADSVKGRFTISRDNSKNTVNLEMSRLKAEDTAVYYCVRDGRSIGGYSGIFDPWGQGTLVTVSS
VL: EIVLTQSPATLSLSPGERATLSCRASQSVDRYLAWYQQKPGQAPRLLIYDASQRATGIPARFSGSGSGTDFTLAISSLEPEDVAVYYCQQRSNWPPLTFGGGTKIEIK
B7: MAB316 (antibody, V domains shown)
VH: QVQLVQSGGGVVQPGRSLTLSCAASGFTFSGFSLHWVRQAPGKGLQWVAVISFDGNHKHFADSLKGRFTISRDNSKNTLYLQINDLRGEDTAVYYCARDGRAVDGFSGILDFWGQGTLVSVSS
VL: EIVMTQSPATLSLSPGERATLSCRASQSVGRYLTWFQQKPGQAPRLLIYDASERATGVPARFSGSGSGTDFTLTISSLEPEDFAVYYCQQRSNWPPLTFGGGTKVEIK
B8: I1 (antibody, V domains shown)
VH: QVQLVESGGGVVQPGRSLRLSCAASGFTFNTYNMHWVRQAPGKGLEWVAVISNDGTYKYSADSVKGRFSISRDNSKNTLYLQMNSLRPDDTAVYYCARDGRSVGGFSGILDPWGQGTLVTVSS
VL: EIVMTQSPATLSLSPGDRATLSCRASQSVGSYLAWYQQKPGQAPRLLIYDASDRATGIPARFSGSGSGTDFTLTISSLEPEDFAVYYCQQRSNWPPLTFGGGTKVEIK
notes: also called intermediate 1
B9: MAB313 (antibody, V domains shown)
VH: QVQLVQSGGGVIQPGRSLTLSCAASGFTFSAYSLHWVRQAPGKGLQWVAVISFDGNFKHFADSLRGRFTISRDNSKNRFYLQMNGLRGEDTAVYYCARDGRAVDGFSGILDFWGQGTLVSVSS
VL: EIVMTQSPATLSLSPGERATLSCRASQSVGRYLTWFQQKPGQAPRLLIYDASERATGIPARFSGSGSGTDFTLTISSLEPEDFAVYYCQQRANWPPLTFGGGTKVEIK
B10: MAB310 (I3) (antibody, V domains shown)
VH: QVQLVQSGGGVVQPGTSLRLSCAASGFMFNTYNMHWVRQAPGKGLEWVAVISNDGTYKYSADSLKGRFSISRDNSKNTLYLHMNSLRPDDTAVYYCARDGRSVGGFSGILDPWGQGTLVTVSS
VL: EIVLTQSPATLSLSPGDRATLSCRASQTVGRYLAWYQQKPGQAPRLLIYDASDRATGISARFSGSGSGTDFTLTISSLEPEDFAVYYCQQRSNWPPLTFGGGTKVEIK
B11: I4 (antibody, V domains shown)
VH: QVQLVESGGGVVQPGRSLRLSCAASGFTFNTYNMHWVRQAPGKGLEWVAVISNDGTYKYSADSVKGRFSISRDNSKNTLYLQMNSLRPDDTAVYYCARDGRSVGGFSGILDPWGQGTLVTVSS
VL: EIVLTQSPATLSLSPGDRATLSCRASQSVGSYLAWYQQKPGQAPRLLIYDASDRATGIPARFSGSGSGTDFTLTISSLEPEDFAVYYCQQRSNWPPLTFGGGTKVEIK
notes: also called intermediate 4
B12: MAB309 (I2) (antibody, V domains shown)
VH: QVQLVQSGGGVVQPGTSLRLSCAASGFMFNTYNMHWVRQAPGKGLEWVAVISNDGTYKHFADSLKGRFSISRDDSKNTLYLHMNSLRPDDTAIYYCARDGRSVGGFSGILDPWGQGTLVTVSS
VL: EIVLTQSPATLSLSPGDRATLSCRASQTVGRYLAWYQQKPGQAPRLLIYDASDRATGISARFSGSGSGTDFTLTISSLEPEDFAVYYCQQRSSWPPLTFGGGTKVEIK
B13: TRL345 UCA with VH Y52aN (antibody, V domains shown)
VH: QVQLVESGGGVVQPGRSLRLSCAASGFTFSSYAMHWVRQAPGKGLEWVAVISNDGSNKYYADSVKGRFTISRDNSKNTLYLQMNSLRAEDTAVYYCARDGRSVGGFSGILDPWGQGTLVTVSS
VL: not shown
B14: TRL345 UCA with VL N53D (antibody, V domains shown)
VH: QVQLVESGGGVVQPGRSLRLSCAASGFTFSSYAMHWVRQAPGKGLEWVAVISYDGSNKYYADSVKGRFTISRDNSKNTLYLQMNSLRAEDTAVYYCARDGRSVGGFSGILDPWGQGTLVTVSS
VL: not shown
B15: TRL345 unmutated common ancestor (UCA) mAb (antibody, V domains shown)
VH: QVQLVESGGGVVQPGRSLRLSCAASGFTFSSYAMHWVRQAPGKGLEWVAVISYDGSNKYYADSVKGRFTISRDNSKNTLYLQMNSLRAEDTAVYYCARDGRSVGGFSGILDPWGQGTLVTVSS
VL: not shown
notes: also called TRL345 UCA; TRL345.UCA
B16: 3–25 UCA with VH A33N (antibody, V domains shown)
VH: QVQLVESGGGVVQPGRSLRLSCAASGFTFSSYNMHWVRQAPGKGLEWVAVISYDGSNKYYADSVKGRFTISRDNSKNTLYLQMNSLRAEDTAVYYCAREGYCSGGSCYSGQPDYWGQGTLVTVSS
VL: not shown

The target of one assay is gB AD-2S1 peptide (human cytomegalovirus). Description: SPR. The settings on record: both partners purified.
The molecule B1 registered an equilibrium dissociation constant (Kd) of 4.47 nM and a kon of 1.46e+08 M⁻¹ s⁻¹.

In turn, B2 yielded a Kd of 0.9 nM and a kon of 1.3e+08 M⁻¹ s⁻¹.

B3 showed a dissociation constant (Kd) of 5.52 nM and a kon of 1.23e+08 M⁻¹ s⁻¹.

Turning to B4, binding was characterised by a dissociation constant (Kd) of 1.57 nM and the association rate constant (kon) is 1.61e+08 M⁻¹ s⁻¹.

Molecule B5 came in with a Kd of 3.68 nM and an on-rate constant (kon) of 1.33e+08 M⁻¹ s⁻¹.

With B6, binding was characterised by a dissociation constant (Kd) of 1.99 nM and the kon turned out to be 1.36e+08 M⁻¹ s⁻¹.

In turn, B7 showed a Kd of 2.96 nM and a kon of 1.63e+08 M⁻¹ s⁻¹.

For B8, the equilibrium dissociation constant (Kd) came out at 1.59 nM and the kon was found to be 1.43e+08 M⁻¹ s⁻¹.

Take B9: the equilibrium dissociation constant (Kd) turned out to be 4.38 nM and the kon was 1.54e+08 M⁻¹ s⁻¹.

B10: binding was put at a Kd of 3.11 nM and the kon was determined as 1.87e+08 M⁻¹ s⁻¹.

B11 registered a Kd of 1.85 nM and a kon of 1.3e+08 M⁻¹ s⁻¹.

Consider B12, for which binding was put at a Kd of 3.77 nM and the kon came to 1.24e+08 M⁻¹ s⁻¹.

The target of a further assay is T1, full-length gB (Towne strain) expressed on HEK293T cells (Human cytomegalovirus strain Towne, UniProt P13201).
T1 construct: also called cell-associated gB
Description: flow cytometry on cells. The settings on record: one partner purified. Also noted: AUC of a 3-point dilution series: unit not given beside the values. On the technique in general: A flow cytometer gives signals particle by particle.
Take B13: the binding result was “binds”.

As for B14, the binding result is given as “binds”.

Take B15: the “AUC of a 3-point dilution series” value came to 97.3 ± 21.2.

The molecule B16 gave an other of 4.4 fold.

The Kd is the free concentration of one partner at which half of the binding sites on the other are occupied at equilibrium, for simple one-to-one binding. For orientation: kon means the second-order rate constant of association.
